The target in this experiment is TPO receptor (TPOR). The experiment in a line: cell-based or functional assay.

Substance “Human TPO synthetic protein (rhTPO) (from UniProt P40225 22-353) (ligand)” showed an EC50 of relative cell proliferation of BaF3/MPL cells (Cell Titer-Glo, 48 h) of 1.7 ng/mL.
